Experimental data from patent US7893023B2, “Prodrugs activated by plasmin and their use in cancer chemotherapy” (priority 2000, dated 2011).
Where two headings read alike, the source gives them in different places. Square brackets hold non-standard residues; d marks the D form. Peptide text beside a SMILES is read from it. * marks the point of attachment. ξ: configuration not given here. Doxorubicin(3'-N) = COc1cccc2c1C(=O)c1c(O)c3c(c(O)c1C2=O)C[C@@](O)(C(=O)CO)C[C@@H]3O[C@H]1C[C@H](N*)[C@H](O)[C@H](C)O1; X1 = COc1cccc2c1C(=O)c1c(O)c3c(c(O)c1C2=O)C[C@@](O)(C(C)=O)CC3OC1C[C@H](N*)[C@H](C)[C@H](C)O1; AMC = Cc1cc(=O)oc2cc(N*)ccc12; ξL = CC(C)CC(N)C(=O)O; ξK = NCCCCC(N)C(=O)O; ξA = CC(N)C(=O)O

How the values were obtained:
human plasmin = target: T1, human plasmin (Homo sapiens, UniProt P00747); assay: Hydrolysis by human plasmin; assay type: biochemical; conditions: for rate of in vitro hydrolysis by human plasmin: 0.17 mM, 0.1 units human plasmin, 25° C., 50 mM pH 8.0 TES buffer
T1 construct: purchased Sigma
T1 sequence (P00747 581-810 limits assumed): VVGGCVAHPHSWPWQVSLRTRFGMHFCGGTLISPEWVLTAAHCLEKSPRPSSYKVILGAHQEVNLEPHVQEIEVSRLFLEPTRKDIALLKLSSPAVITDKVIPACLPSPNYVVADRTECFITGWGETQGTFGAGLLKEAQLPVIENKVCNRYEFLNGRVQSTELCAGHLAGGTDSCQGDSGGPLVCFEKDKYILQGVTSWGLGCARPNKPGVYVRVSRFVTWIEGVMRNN
T1 sequence (P00747 97-580 partner limits assumed): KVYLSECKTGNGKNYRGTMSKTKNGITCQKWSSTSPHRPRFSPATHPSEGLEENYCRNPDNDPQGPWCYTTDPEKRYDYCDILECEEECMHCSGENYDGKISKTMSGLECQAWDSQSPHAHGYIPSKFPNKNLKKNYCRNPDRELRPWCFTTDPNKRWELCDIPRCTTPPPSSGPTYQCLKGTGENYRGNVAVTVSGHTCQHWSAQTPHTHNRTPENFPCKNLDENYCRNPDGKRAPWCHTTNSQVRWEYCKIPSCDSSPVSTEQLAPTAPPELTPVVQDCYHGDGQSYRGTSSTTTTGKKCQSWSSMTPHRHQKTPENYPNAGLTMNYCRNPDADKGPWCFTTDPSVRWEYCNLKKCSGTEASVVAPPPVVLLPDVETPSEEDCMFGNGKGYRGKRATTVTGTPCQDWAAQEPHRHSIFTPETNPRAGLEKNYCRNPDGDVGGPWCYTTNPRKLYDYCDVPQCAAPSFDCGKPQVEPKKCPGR
Procedure: In an eppendorf tube, 50 μl of the substrate at a concentration of 50 μM in DMF were mixed with 900 μl of TES buffer and 50 μl of an enzyme-containing solution. The mixture was incubated for 1 hour at 25° C. Fluorescence was determined (λexc=350 nm, λem=496 nm; fluorometer standardized with a 10 nM solution of 7-amido-4-methylcoumarin in PBS and the whole mixture excluding the enzyme). A dosage curve was done in parallel with known plasmin concentrations (at least five ½ dilutions). Plasmin activity was determined and expressed in IU/ml; μmole substrate transformed/min×ml.
Compounds I, DNR and II, DNR (0.17 mM), as well as D-Ala-Leu-Lys-7-amido-4-methylcoumarin (0.17 mM) were incubated at 25° C. in the presence of 0.1 units of human plasmin in a 50 mM, pH 8.0 TES buffer. For Compounds I, DNR and II, DNR, HPLC samples were prepared and analyzed by HPLC (See General Methods, Section J). In case of D-Ala-Leu-Lys-7-amido-4-methylcoumarin, after 1 hour of incubation, the fluorescence of the resulting solution was determined at λexc=350 nm, λem=496 nm (See General Methods, Section N.).
After 15, 45 and 60 min of incubation, triplicate aliquots were removed and the drugs and metabolites extracted prior to HPLC analysis (See General Methods, Section J.).

[1] = tested on: medium conditioned by cultured B16-B16 cells; assay: Hydrolysis in medium conditioned by B16-B16 cells; assay type: in vitro ADME, murine; conditions: 17.24 μM, medium 20 times concentrated, 2 hours, 37° C.
Procedure: Compounds I, DNR and II, DNR (17.24 μM) were incubated in a medium freshly conditioned by the cultured B16-B16 cells (20 times concentrated) for 2 hours at 37° C. After that time, triplicate aliquots were removed and the drugs and metabolites extracted prior to HPLC analysis (See General Methods, Section J.).

[2] = tested on: MCF-7/6 human mammary carcinoma cells; assay: In vitro accumulation by cultured MCF-7/6 tumor cells; assay type: cell-based; conditions: 0.02 mM, 37° C., after 24 hours
Procedure: Compound I, DNR was incubated in vitro at 37° C. in the presence of MCF-7/6 human mammary carcinoma cells and the intracellular accumulation of the compound or its potential metabolites were analyzed by HPLC and fluorimetry, after extraction of the drugs from the cells.
Compound I, DNR was dissolved in distilled water at 17.24 μmole/ml and then diluted to obtain 0.02 mM in DMEM-F12 culture medium supplemented with 10% fetal calf serum (glutamax-I). Four ml of medium was poured in 25 cm^2 flasks (ref 3014. FALCON), and the cells were incubated for 30 minutes, 1, 3, 6 and 24 hours at 37° C. Then the cells were washed three times with PBS, and the cells were scraped from the flasks, and sonicated for 30 seconds at 100 Watts in a ice bath. Aliquots of 500 μl from each sample were then extracted with 1.8 ml of a chloroform:methanol mixture (4:1 by volume) to which 0.1 ml of 0.2 M borate buffer at pH 9.2, containing DOX at […] as internal standard, were added. After stirring, the organic layer was dried and resuspended in 400 μl of distilled water, sonicated 5 minutes at 100 Watts in a ice-bath and filtered through a 0.22 μm filter (Waters-Millipore, MILLEX-GV) and then analyzed by HPLC.
On a aliquot of 100 μl, the protein content of the cell homogenate was determined.

B16-B16 melanoma cells = assay: Uptake by B16-B16 cells; assay type: cell-based, murine
Procedure: This experiment was conducted to evaluate whether the prodrugs were able to enter cultured cells in their non-hydrolyzed forms. In addition, it was desired to estimate the capacity of the prodrugs to induce detectable levels of products of their enzymatic hydrolysis (DNR and its amino acid derivatives) inside B16-B16 cells. N-Leu-Leu-DNR was chosen as a reference drug since it is the product that is directly liberated by plasmin from Compound II, DNR.
At determined time points (1, 3, 5 and 24 hours), the cells were washed, harvested and lysed by ultrasonication. The concentration of the drugs and metabolites in the cell lysates were determined after extraction and HPLC analysis (See General Methods, Section J.). The amounts of anthracycline derivatives found per mg of protein were then compared.

[3] = Acute toxicity in OF-1 mice, i.p.; assay type: in vivo; conditions: male, mouse, in vivo, ip; OF-1 mice, five i.p. injections days 0-4, calculated on day 28
Procedure: (§1) The percentage of surviving mice and the mean body weight of each dose group was plotted as a function of time. Cumulative mortality on day 14 and day 28 was also plotted as a function of the dose level for the purpose of IC50 determination. IC50 values were determined from sigmoidal regressions performed with the GraphPad Prism 3.00 software.
(§2) Male OF-1 mice (5 weeks old upon delivery), were kept for one week under laboratory conditions before the experiment. […] The animals were divided in six groups (5 mice per group) for toxicity studies and marked individually.
(§3) Mortality and clinical signs were recorded up to 4 hours post-treatment on dosing days, and daily thereafter. Individual body weights were recorded daily until day 14 and at least twice a week thereafter. The percentage of surviving mice and the mean body weight of each dose group were plotted as a function of time. Cumulative mortality on day 14 and day 28 was also plotted as a function of the dose level for the purpose of LD50 determination. LD50 values were determined by regression analysis.

OF-1 mice = assay: Acute toxicity in OF-1 mice, i.p.; assay type: in vivo
Procedure: as §1, §2, §3

[4] = tested on: LS174T colon tumor xenografts; assay: Chemotherapeutic activity in the LS174T human colon tumor xenograft model; assay type: in vivo, mice
Source text: Animals were kept under pathogen-free conditions with food and water supplied ad libitum, and kept for about one week before implantation of the tumors. Fragments (˜2 mm) of tumors grown in nude mice were implanted subcutaneously in both flanks of the mice. Tumors were generally allowed to grow to attain a diameter of 5-6 mm each (approximately two weeks).
The mice weighed 20.0-25.0 g at the beginning of the study. They were selected and assigned to groups in order to have equally distributed tumor volumes in the different groups. In each group, mice were labeled individually. Treatments were assigned randomly to those groups.
All dosing solutions were prepared the day of injection by dissolution in water ( 1/10 of the expected final volume) and further dilution with 0.9% (w/v) NaCl. The concentration of these solutions was checked (A475 nm determination) after sterilization by filtration (0.22 μm) and adjusted to the final required value using sterile 0.9% (w/v) NaCl).
Treatments were administered by the i.p. route. The mice received a constant volume (10 μl/g) of either saline (control group) or drug. Mortality and clinical signs were recorded up to 4 hours post-treatment on dosing days, and daily thereafter. Their behavior was equally noted. Individual body weights were generally recorded daily until day 14 and at least twice a week thereafter.
Tumor growth was monitored by two-dimensional measurements using calipers and a precision of 0.5 mm. Tumor volumes were calculated according to the following formula: Vt=[length×(width)^2]/2
Median relative tumor volumes (RTV) were calculated as tumor volumes determined at individual days divided by tumor volumes on day 0. For treated groups, growth inhibition was estimated as the percentage ratio of median RTV of treated (T) mice versus controls (C) on each day of tumor treatment. T/C(%)=[Median RTV(treated group)/Median RTV(control group)]×100
The minimal T/C value (%) for each treatment was used as a parameter for maximum efficacy. Duration of growth inhibition was assessed by considering growth delays (T-C) for one (200%) and two (400%) doublings of the median RTV).
To determine the statistical significance of any difference in median RTV between two groups, the Mann-Whitney test was used. The test was conducted at a p level of 0.05 (two tailed) using the GraphPad Prism 3.00 software.
Female Swiss nude mice were 5 weeks old upon delivery (See General Methods, Section O). They were kept under pathogen-free conditions with food and water supplied ad libitum, and kept for about one week before implantation of the tumors. Fragments (˜2 mm) of LS174T tumors grown in nude mice were implanted subcutaneously in both flanks of the mice used in the study. Tumors were left to grow for 17 days. At that time, the mice weighed about 20.5-26.5 g.
Mice were then selected and assigned to groups in order to have equally distributed tumor volumes in different groups (5-6 mice, 9-10 tumors/group). The dose levels of Compound II, DOX used in the study, were selected on the basis of a lethality study previously conducted on OF-1 normal mice. The dose of DOX was based on previous chemotherapy experiments performed in nude mice with the same dosing schedule.
Treatments were administered by the i.p. route on days 0, 1, 2, 3 and 4, the mice receiving a constant volume (10 μl/g) of either saline or the different dosing solutions. DOX was used at 3.8 μmol/kg, Compound II, DOX was used at 25.9 μmol/kg and 34.5 μmol/kg. Clinical signs (recorded 0.5, 1, 2 and 4 hours after dosing and daily between dosing days) and body weights (recorded on each day of tumor measurement) were used to assess treatment toxicity, tumor growth was monitored on days 7, 12, 15, 19, 22, 26, 29, 33 and 36 by two-dimensional measurements using calipers and a precision of 0.5 mm.

[5] = DOX 3.8 μmol/kg, Compound II, DOX lower dosage 25.9 μmol/kg, i.p. days 0-4

Procedure for B16-B16 murine melanoma: Male C57-B16 black mice were 5 weeks old upon delivery. The body weight of the animals was approximately 20 g at the beginning of the test (See General Methods, Section O).
The animals were divided in eight groups (5 mice per group). Confluent murine melanoma B16-B16 cells (See General Methods, Section E.) were washed twice with PBS and EDTA (See General Methods, Section F.) twice and detached with trypsin (2 min incubation at 37° C.), that was thereafter neutralized by DMEM-F12 (containing 10% of calf serum). The cells were centrifuged for 5 min at 300 g. The pellet was resuspended twice in the DMEM-F12 without serum and centrifuged 5 min at 300 g.
The number of cells per ml of DMEM-F12 was then estimated (Brucker chamber) and the dilution of 2.5×10^5 cells/ml prepared. Each animal received 200 μl of this suspension (5.0×10^4 cells) in its tail vein. The day of injection was considered day 0 of the study. […] Animals were weighed on days 0, 1, 3, 6, 8 and 14. Their behavior and eventual clinical signs were also noted. All animals were sacrificed on day 14 and autopsied.
The lung lobes were fixed in a Bouin's solution (picric acid: formaldehyde, 40%: acetic acid, 15:5:1, v/v). Every lobe immersed in the fixing solution in a Petri flask was uniformly lighted against an opaque black background. Pictures of the front and back side of every lobe were taken with the help of a light microscope, scanned and digitized. The relative surface occupied by B116-B16 colonies was then estimated with the Scion Image Program.
The individual mean values were analyzed with the Scheffe's F-test to evaluate the statistical significance of differences observed between the groups.

COc1cccc2c1C(=O)c1c(O)c3c(c(O)c1C2=O)C[C@@](O)(C(C)=O)CC3OC1C[C@H](NC(=O)C(CC(C)C)NC(=O)C(CCCCN)NC(=O)C(CC(C)C)NC(=O)C(C)N)[C@H](C)[C@H](C)O1 (stereo partly drawn) [Compound I, DNR, D-Ala-Leu-Lys-Leu-DNR]
rate of in vitro hydrolysis by human plasmin (human plasmin): approximately 2.75 nmol/min/unit
hydrolysis in medium conditioned by B16-B16 cells [1]: Negative results
accumulation by cultured MCF-7/6 cells [2]: approximately 0.1 μg/mg of cell proteins
intracellular level of metabolite DNR (B16-B16 melanoma cells): 0.015±0.002 mmol/mg cell protein

COc1cccc2c1C(=O)c1c(O)c3c(c(O)c1C2=O)C[C@@](O)(C(C)=O)CC3OC1C[C@H](NC(=O)C(CC(C)C)NC(=O)C(CC(C)C)NC(=O)C(CCCCN)NC(=O)C(CC(C)C)NC(=O)C(C)N)[C@H](C)[C@H](C)O1 (stereo partly drawn) [Compound II, DNR, D-Ala-Leu-Lys-Leu-Leu-DNR] (H-[ξA][ξL][ξK][ξL][ξL]-X1)
rate of in vitro hydrolysis by human plasmin (human plasmin): 27.90 nmol/min/unit
hydrolysis by plasmin, times more rapid than Compound I, DNR (human plasmin; same conditions): at least 10 times
hydrolysis in medium conditioned by B16-B16 cells [1]: Negative results

COc1cccc2c1C(=O)c1c(O)c3c(c(O)c1C2=O)C[C@@](O)(C(=O)CO)C[C@@H]3O[C@H]1C[C@H](NC(=O)[C@H](CC(C)C)NC(=O)[C@H](CC(C)C)NC(=O)[C@H](CCCCN)NC(=O)[C@H](CC(C)C)NC(=O)[C@@H](C)N)[C@H](O)[C@H](C)O1 [Compound II, DOX, D-Ala-Leu-Lys-Leu-Leu-DOX] (H-[dA]LKLL-{Doxorubicin(3'-N)})
LD50 at 28 day [3]: 34.5 µmol/kg
survival (OF-1 mice; OF-1 mice, 17.24-60.34 μmol/kg i.p. days 0-4): All animals survived to day 7
clinical signs of toxicity (OF-1 mice; OF-1 mice, i.p.): piloerection, tremor, motor disturbances, stupor and finally, paralysis of the hind legs
loss of mean body weight compared to initial body weight (critical threshold attained) (OF-1 mice; doses 34.48 (after second week), 43.1 and 60.34 μmol/kg (after first week)): ≥ 20%
LD50 fold higher than that of DOX (OF-1 mice; same conditions): 8.4 fold
mice that died before the end of the study ([4]; 34.5 μmol/kg i.p. days 0-4, deaths on days 18, 34 and 35): three
maximum loss of mean body weight ([4]; 34.5 μmol/kg, day 26): 14%
treatment-related mortality [4, 5]: No treatment-related mortality
weight loss [4, 5]: no significant weight loss
body weight gained from day 6 to day 14 (B16-B16 murine melanoma; 34.5 μmol/kg): 4.9%
mean body weight, % of initial (B16-B16 murine melanoma; 34.5 μmol/kg, day 14): 104.5%
clinical signs of toxicity (B16-B16 murine melanoma; 34.5 and 69.0 μmol/kg): No clinical signs of toxicity were observed

Cc1cc(=O)oc2cc(NC(=O)[C@H](CCCCN)NC(=O)[C@H](CC(C)C)NC(=O)[C@@H](C)N)ccc12 [D-Ala-Leu-Lys-7-amido-4-methylcoumarin, reference compound] (H-[dA]-Leu-Lys-{AMC}; N-terminus assumed)
rate of in vitro hydrolysis by human plasmin (human plasmin): 20.40 nmol/min/unit
hydrolysis in medium conditioned by B16-B16 cells [1]: Negative results

N-Leu-Leu-DNR
intracellular level of metabolite DNR (B16-B16 melanoma cells; B16-B16 cells, 3 hours): 0.67±0.12 nmol/mg cell protein
intracellular level of metabolite L-Leu-DNR (B16-B16 melanoma cells; B16-B16 cells, 3 hours): 81.22±6.66 nmol/mg cell protein
intracellular level of the unchanged compound (B16-B16 melanoma cells; B16-B16 cells, 3 hours of incubation): 7.74±0.75 nmol/mg cell protein
intracellular level of metabolite L-Leu-DNR (B16-B16 melanoma cells; B16-B16 cells, 24 hours): 98.57±16.76 nmol/mg cell protein
intracellular level of the unchanged compound (B16-B16 melanoma cells; B16-B16 cells, 24 hours): 1.04±0.10 mmol/mg cell protein
intracellular level of metabolite DNR (B16-B16 melanoma cells; B16-B16 cells, 24 hours (end of incubation)): 1.60±0.77 nmol/mg cell protein
